This data set addresses human neutrophil peptide-1 (HNP-1).

human neutrophil peptide-1 (HNP-1), sequence (chain, as listed by the source): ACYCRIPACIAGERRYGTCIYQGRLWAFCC

B1: arginine-specific mono-ADP-ribosyltransferase-1 (ART1), mART1 released from transfected NMU cells (protein)
chain: QSYSISQLDIFSQETPLDMAPASFDDQYAGCLADMTAALPDLNHSEFQANKVYADGWAQANNQWQERRAWGSVWGSLPPSPPGFRDEHGVALLAYTANSPLHKEFNAAVREAGRSRAHYLHHFSFKTLHFLLTEALQLLRSHRSRGCQQVYRGVHGLRFRPAGPGATVRLGGFASASLKNVAAQQFGEDTFFGIWTCLGAPIRGYSFFPEEEEVLIPPFETFQVINTSRPTQGPARIYLRALGKRSTYNCEYIKEKKCRSGPCWLGSS
Consider B1, for which the “ADP-ribosylation of HNP-1 by ART1 in vitro (RP-HPLC and MS of the reaction products)” value was “HNP-1 was ADP-ribosylated in vitro using purified ART1”.

(Values after patent US20120164123.)
